Target: T1, Alexa488-PLCβ1 (purified PLCβ1a) (UniProt P10687 1-1216, Alexa488 on the N-terminus)
T1 sequence: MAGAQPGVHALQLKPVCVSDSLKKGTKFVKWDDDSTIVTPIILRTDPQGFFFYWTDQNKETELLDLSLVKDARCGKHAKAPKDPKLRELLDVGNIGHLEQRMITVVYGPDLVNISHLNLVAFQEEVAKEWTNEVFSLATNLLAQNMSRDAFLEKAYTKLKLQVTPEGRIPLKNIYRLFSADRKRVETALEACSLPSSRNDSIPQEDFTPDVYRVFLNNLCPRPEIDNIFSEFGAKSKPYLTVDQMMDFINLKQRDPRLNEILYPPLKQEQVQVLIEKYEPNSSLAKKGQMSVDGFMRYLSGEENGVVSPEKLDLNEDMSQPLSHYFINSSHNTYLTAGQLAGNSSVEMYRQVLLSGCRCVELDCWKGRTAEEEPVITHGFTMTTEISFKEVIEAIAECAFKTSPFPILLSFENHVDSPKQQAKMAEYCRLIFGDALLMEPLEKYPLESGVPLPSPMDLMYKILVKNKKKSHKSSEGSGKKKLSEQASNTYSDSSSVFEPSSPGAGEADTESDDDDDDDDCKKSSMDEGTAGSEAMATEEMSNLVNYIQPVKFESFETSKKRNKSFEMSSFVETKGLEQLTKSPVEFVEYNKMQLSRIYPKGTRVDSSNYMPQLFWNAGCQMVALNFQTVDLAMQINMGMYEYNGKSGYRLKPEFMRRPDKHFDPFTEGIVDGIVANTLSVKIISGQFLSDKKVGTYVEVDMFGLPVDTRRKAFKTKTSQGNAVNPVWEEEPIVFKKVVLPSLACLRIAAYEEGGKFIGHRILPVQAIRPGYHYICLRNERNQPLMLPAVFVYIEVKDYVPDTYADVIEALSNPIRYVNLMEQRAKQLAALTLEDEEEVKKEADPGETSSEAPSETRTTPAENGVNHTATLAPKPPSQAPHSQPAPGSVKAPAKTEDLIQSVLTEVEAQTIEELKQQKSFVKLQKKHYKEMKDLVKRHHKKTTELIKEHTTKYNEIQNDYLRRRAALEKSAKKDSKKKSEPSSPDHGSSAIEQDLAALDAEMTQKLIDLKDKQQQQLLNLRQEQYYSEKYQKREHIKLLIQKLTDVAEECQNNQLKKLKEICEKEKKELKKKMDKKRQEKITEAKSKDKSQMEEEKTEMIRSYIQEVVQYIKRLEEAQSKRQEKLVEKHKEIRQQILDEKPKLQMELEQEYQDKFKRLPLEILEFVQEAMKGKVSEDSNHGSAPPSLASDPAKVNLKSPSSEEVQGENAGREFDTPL
Test: other fluorescence titration

B1: Alexa594-eIF5A (purified) (natural protein)
chain: not shown
modifications: Alexa594 on the N-terminus
Binder B1 has a Kd of 27 ± 5 nM.
